Measurements published in US20250026842A1 (JIANGSU HENGRUI PHARMACEUTICALS, published 2025).
Like-named read-outs stand apart in the source and are kept apart here.

What was measured:
[1] = biological target: T1, human 4-1BB on the surface of HEK293-Hu4-1BB cells (human, UniProt Q07011 24-255); assay: cell-based or functional assay
[2] = biological target: T1, human 4-1BB on the surface of …; assay: FACS on HEK293 cells highly expressing human 4-1BB
From the text: (§1) HEK293-Hu4-1BB cells were obtained by transient transfection of HEK293 cells (ATCC CRL-1573) with a gene expressing human 4-1BB protein or polypeptide (CD137 cDNA ORF Clone, Human, C-OFPSpark tag; purchased from Sino Biological, Cat #HG10041-ACR). The cell culture medium was DMEM (Gibco, Cat #11995065) containing 10% fetal bovine serum. The experimental medium was sterile PBS (phosphate-buffered saline, pH 7.40) containing 2% fetal bovine serum. HEK293-Hu4-1BB cells were washed with the experimental medium twice and seeded into a 96-well U-bottom plate at 1×10⁵ HEK293-Hu4-1BB cells per well. Different concentrations of the anti-4-1BB single-domain antibody VHH-Fc samples to be tested were added. The cells were incubated at 4° C. for 1 h and then washed with the experimental medium twice. Then the goat anti-human IgG (H+L) Alexa Fluor 488 antibody (Thermo, Cat #A11013) was added. After two washes, fluorescence signal values were measured using a flow cytometer. Urelumab was used as a positive control.
The antigen-binding activity of the humanized antibodies was measured using a FACS assay as described in Example 2.

[3] = biological target: T1, human 4-1BB on the surface of …; assay: cell-based or functional assay; remark: listed apart in the source
[4] = biological target: T1, human 4-1BB on the surface of …; assay: FACS on HEK293 cells highly expressing human 4-1BB; remark: listed apart in the source
From the text: as §1
A comparison of the antigen-binding activity of C5_V2 and C5_V2-YTI was made using a FACS assay as described in Example 5.

T1 sequence (Q07011 24-255): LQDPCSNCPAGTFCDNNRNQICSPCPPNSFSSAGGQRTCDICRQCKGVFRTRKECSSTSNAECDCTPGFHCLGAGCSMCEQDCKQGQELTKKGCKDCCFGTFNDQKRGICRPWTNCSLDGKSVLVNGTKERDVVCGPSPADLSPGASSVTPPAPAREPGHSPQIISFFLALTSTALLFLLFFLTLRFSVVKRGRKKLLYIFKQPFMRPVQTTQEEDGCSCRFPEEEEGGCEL

B1: Urelumab (antibody, V domains shown)
VH: QVQLQQWGAGLLKPSETLSLTCAVYGGSFSGYYWSWIRQSPEKGLEWIGEINHGGYVTYNPSLESRVTISVDTSKNQFSLKLSSVTAADTAVYYCARDYGPGNYDWYFDLWGRGTLVTVSS
VL: EIVLTQSPATLSLSPGERATLSCRASQSVSSYLAWYQQKPGQAPRLLIYDASNRATGIPARFSGSGSGTDFTLTISSLEPEDFAVYYCQQRSNWPPALTFGGGTKVEIK
Q: Which “EC50, 4-1BB/NF-κB luciferase reporter, FcγRIIb cross-linking” value [1] does the source give for B1 here?
A: The value was 0.027 nM.

Q: And the “EC50, 4-1BB/NF-κB luciferase reporter, no FcγRIIb cross-linking” value [1]?
A: The value was 2.19 nM.

Q: And the “Emax, 4-1BB/NF-κB luciferase reporter, FcγRIIb cross-linking” value [1]?
A: Its value is 9.39 relative to antibody-free group.

Q: And the “Emax, 4-1BB/NF-κB luciferase reporter, no FcγRIIb cross-linking” value [1]?
A: The value was 4.3 relative to antibody-free group.

Q: And the EC50 [2]?
A: The EC50 was 1.18 nM.

Q: And the Maximal fluorescence value [2]?
A: Its Maximal fluorescence value is 1000.

Q: What about the “Factor of variation in Emax, FcγRIIb-mediated activation of HEK293-4-1BB cells” value [3] of the same binder?
A: The value was 2.61 fold.

Q: And the “Factor of variation in Emax, activation of HEK293-4-1BB cells” value [3]?
A: Its value is 1.7 fold.

Q: What about the EC50 [4] of the same binder?
A: The EC50 was 1.64 nM.

Q: What about the Maximal fluorescence value [4] of the same binder?
A: The Maximal fluorescence value was 39700.
